Measured values as given in PMC10840515.

What was measured:
[1] = molecular target: HLA-DR1 (HLA-DRA*0101, HLA-DRB1*0101) (human); experiment: FP
[2] = molecular target: HLA-DR1 (HLA-DRA*0101, HLA-DRB1*0101) (human); experiment: ELISA
[3] = molecular target: HLA-DR1 (HLA-DRA*0101, HLA-DRB1*0101) (human); experiment: ELISA; remark: listed apart in the source

S818-832
IC50 [1]: > 10 µM

nsp12 5019-5033
IC50 [1]: 2.89 µM

SARS-CoV-2 Spike peptide S511-530
IC50 [2]: 2.62 µM

SARS-CoV-2 orf1ab (nsp14) peptide nsp14 6420-6434
IC50 [2]: 0.541 µM

SARS-CoV-2 Spike peptide S512-526
IC50 [2]: 0.662 µM

N224-238
IC50 [1]: 2.77 µM

ORF8 43-57
IC50 [1]: 0.43 µM

SARS-CoV-2 orf1ab (nsp3) peptide nsp3 1350-1364
IC50 [2]: 0.14 µM

N328-342
IC50 [1]: 4.01 µM

S990-1004
IC50 [1]: > 10 µM

N127-141
IC50 [1]: > 10 µM

S339-353
IC50 [1]: 5.99 µM

N108-122
IC50 [1]: > 10 µM

SARS-CoV-2 Spike peptide S167-181
IC50 [2]: > 10 µM

SARS-CoV-2 Spike peptide S486-505 (Wuhan HU-1)
IC50 [3]: 1.95 µM | IC50 [2]: 3.05 µM

E56-70
IC50 [1]: > 10 µM

S235-249
IC50 [1]: 8.13 µM

S1015-1029
IC50 [1]: 7.39 µM

N49-63
IC50 [1]: 0.493 µM

nsp6 3801-3815
IC50 [1]: 1.52 µM

S344-358
IC50 [1]: > 10 µM

SARS-CoV-2 Spike peptide S866-880
IC50 [2]: 1.15 µM
